Patent publication US20090042786A1

Biological target: human Factor X activated (human) (UniProt P00742)
Experiment: cell-based or functional assay

UniProt P00742, sequence (P00742 235-488 limits assumed): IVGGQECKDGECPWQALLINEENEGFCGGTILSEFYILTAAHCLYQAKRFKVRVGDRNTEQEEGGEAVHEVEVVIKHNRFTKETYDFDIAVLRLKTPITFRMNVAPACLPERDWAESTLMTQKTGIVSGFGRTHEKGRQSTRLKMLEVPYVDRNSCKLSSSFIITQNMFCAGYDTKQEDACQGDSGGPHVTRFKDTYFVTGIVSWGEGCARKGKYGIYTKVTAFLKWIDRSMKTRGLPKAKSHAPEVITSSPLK

Substance Amblyomin-X recombinant protein has an inhibition of the amidolytic activity of human Factor X activated (dose at which inhibition is seen) of 5 to 10 µM.
